Results on one molecule are retold here after patent US20180312587A1 (ADURO BIOTECH HOLDINGS EUROPE B V, published 2018).

Assay [1] has as its target T1, hSIRPα expressed on primary human cells (human, UniProt P78324 31-504).
T1 construct: whole, on cells; also called hSIRPα on primary human CD14+ monocytes; on primary human granulocytes
The experiment in a line: flow cytometry, primary CD14+ enriched monocytes, donor 2. On the procedure:
Next, the binding of hSIRPα.50A to hSIRPα expressed on primary human CD14⁺ monocytes was investigated. In addition, the ability of hSIRPα.50A to block the interaction between hSIRPα and recombinant hCD47/Fc-protein was assessed. For this purpose, CD14+ monocytes were isolated from Ficoll-purified human peripheral blood mononuclear cells (PBMCs) using RosetteSep human monocyte enrichment cocktail (Stemcell). The percentage of monocytes present after the enrichment was determined by flow cytometry on the FACSVerse (BD Biosciences) based on CD14 staining using an APC-Cy7-conjugated mouse-anti-human CD14 detection antibody (BD Biosciences). […] After this labeling procedure, cells were washed two times, resuspended in PBS/1% BSA containing 0.1 μg/mL DAPI (BioLegend), and analysed by flow cytometry on the FACSVerse (BD Biosciences). Data were processed and analysed with FlowJo V10 software (FlowJo, LLC).
To assess the blocking ability of hSIRPα.50A, CD14+ enriched monocytes cells were seeded in 96-well round bottomed tissue culture plates and incubated for 45 minutes with FcR Blocking Reagent (Miltenyi Biotec) and hSIRPα.50A antibody (200 μg/mL and dilutions thereof) in PBS/1% BSA at 4° C. […] After this labeling procedure, cells were washed two times, resuspended in PBS/1% BSA containing 0.1 μg/mL DAPI (BioLegend), and analysed by flow cytometry on the FACSVerse (BD Biosciences). […]
Background: A flow cytometer gives signals particle by particle.

The target of a further assay is T2, hSIRP-VβC1γC2β (human, UniProt O00241 30-398).
T2 chain: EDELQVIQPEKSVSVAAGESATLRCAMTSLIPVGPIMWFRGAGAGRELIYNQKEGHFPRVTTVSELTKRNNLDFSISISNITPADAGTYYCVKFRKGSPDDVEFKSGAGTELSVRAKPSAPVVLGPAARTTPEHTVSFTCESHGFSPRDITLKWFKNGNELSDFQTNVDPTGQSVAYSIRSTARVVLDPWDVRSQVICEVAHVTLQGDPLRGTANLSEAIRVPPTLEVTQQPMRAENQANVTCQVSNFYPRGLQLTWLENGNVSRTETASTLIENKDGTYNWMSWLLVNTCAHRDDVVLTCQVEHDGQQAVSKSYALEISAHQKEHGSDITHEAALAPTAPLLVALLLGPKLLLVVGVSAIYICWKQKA
Put plainly: CELISA, CHO-K1 transfectants, domain exchange study; nd = not detected. The text has this:
(§1) Based on the fold of SIRPα/β1/γ, the extracellular region can be subdivided into three separate domains: the Ig-like (immunoglobulin-like) V-type (IgV), Ig-like C1-type (IgC1), and Ig-like C2-type (IgC2) domain. The IgV domain is also known as the ligand-binding N-terminal domain of SIRPα and SIRPγ (which binds to CD47). The human SIRPβ1/γ mutants were designed based on the full length hSIRPβ1 sequence (SEQ ID NO: 38) and each individual Ig-like domain was substituted for the equivalent domain of human SIRPγ (SEQ ID NO: 40). […] Binding of hSIRPα.40A to the exchange mutants was tested using CELISA. To this end, CHO-K1 cells were transiently transfected, using Lipofectamine 2000, with the pCI-neo vectors encoding hSIRPαV1, hSIRPαV2, hSIRPβ1, hSIRP-VγC1βC2β, hSIRP-VβC1γC2β, and hSIRP-VβC1βC2γ, respectively. The transfected cells were cultured at 37° C., 5% CO₂ and 95% humidity in medium (DMEM-F12 (Gibco) with 5% New Born Calf serum (Biowest) and Pen/Strep (Gibco)) until confluent. Subsequently, cells were trypsinized and seeded in 96-well flat-bottom tissue culture plates and cultured at 37° C., 5% CO₂ and 95% humidity in culture medium until confluent. […] Reactions were stopped with 0.5 M H₂SO₄ and absorbances were read at 450 and 610 nm.

Another assay concerns the target T3, hSIRP-VβC1βC2γ (human, UniProt O00241 30-398).
T3 chain: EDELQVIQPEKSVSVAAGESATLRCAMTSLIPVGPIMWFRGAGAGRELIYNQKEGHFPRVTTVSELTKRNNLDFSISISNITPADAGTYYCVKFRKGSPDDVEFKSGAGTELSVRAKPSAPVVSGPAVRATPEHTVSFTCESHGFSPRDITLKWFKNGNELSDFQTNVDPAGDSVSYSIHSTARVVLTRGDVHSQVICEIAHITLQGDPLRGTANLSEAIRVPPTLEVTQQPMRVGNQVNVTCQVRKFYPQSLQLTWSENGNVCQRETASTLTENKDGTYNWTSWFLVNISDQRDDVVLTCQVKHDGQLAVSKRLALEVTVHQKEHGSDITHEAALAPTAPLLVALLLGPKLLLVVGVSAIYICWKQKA
The assay is described as above.
Description: as §1

T1 sequence (P78324 31-504): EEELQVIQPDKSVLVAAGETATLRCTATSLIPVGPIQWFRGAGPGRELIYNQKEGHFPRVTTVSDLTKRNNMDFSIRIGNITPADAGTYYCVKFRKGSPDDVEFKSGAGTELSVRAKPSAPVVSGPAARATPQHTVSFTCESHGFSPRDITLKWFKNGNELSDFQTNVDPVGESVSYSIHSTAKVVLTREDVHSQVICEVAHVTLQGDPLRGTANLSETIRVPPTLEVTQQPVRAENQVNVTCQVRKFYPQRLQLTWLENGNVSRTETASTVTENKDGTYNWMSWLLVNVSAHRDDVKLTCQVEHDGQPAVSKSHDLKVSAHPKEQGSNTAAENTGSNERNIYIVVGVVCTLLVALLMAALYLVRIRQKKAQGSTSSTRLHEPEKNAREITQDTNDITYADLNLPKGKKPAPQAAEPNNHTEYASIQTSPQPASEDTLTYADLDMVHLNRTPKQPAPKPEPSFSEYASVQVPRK

B1: hSIRPα.50A (antibody, V domains shown)
VH: QVQLQQSGPELVKPGASVRISCKASGFTFTNYYIHWVKQRPGQGLEWIGWIYPGNVNTKYNEKFKAKATLTADKSSTTAYMQLSSLASEDSAVYFCARPTIIATDFDVWGAGTTVTVSS
VL: DIVMTQSHKFMSTSVGDRVNITCKASQGVGTAVGWYQQKPGQSPRLLIYWASTRHTGVPDRFTGSGSGTDFSLAISNVQSEDLADYFCQQYSTYPFTFGGGTNLEIK
notes: light chain constant domain not tied; also called mouse hSIRPα.50A; hSIRPα.50A.mIgG1
For orientation: EC50 means the midpoint of the concentration-response curve. Read a high EC50 as a less potent agent. Molecule B1 came in with an EC50 in assay [1] of 3.08 nM. In addition, the binding result with hSIRP-VβC1γC2β and with hSIRP-VβC1βC2γ was “no binding” in each case.
